Changes are numbered by the printed parent chain. Each block holds one binder with its values, some of them ahead of it.
Legend:
[1] = molecular target: T1, recombinant rat Nectin-4 protein (rat, UniProt D3ZET1 31-348); experiment: ELISA on recombinant protein
T1 construct: Recombinant protein; construct not described
T1 sequence: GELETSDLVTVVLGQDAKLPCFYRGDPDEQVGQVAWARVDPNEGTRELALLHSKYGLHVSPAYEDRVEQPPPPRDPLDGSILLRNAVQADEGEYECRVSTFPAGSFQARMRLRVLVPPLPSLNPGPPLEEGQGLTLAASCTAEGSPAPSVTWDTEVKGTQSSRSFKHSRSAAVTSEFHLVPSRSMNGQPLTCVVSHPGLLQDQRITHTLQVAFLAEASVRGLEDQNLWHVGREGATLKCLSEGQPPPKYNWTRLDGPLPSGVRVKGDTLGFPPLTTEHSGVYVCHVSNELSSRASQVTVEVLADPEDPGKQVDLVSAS

[2] = molecular target: T2, recombinant cynomolgus monkey Nectin-4 protein (cynomolgus monkey, UniProt A0A2K5WES1 32-349); experiment: ELISA on recombinant protein
T2 construct: Recombinant protein; construct not described; also called cynomolgus Nectin-4
T2 sequence: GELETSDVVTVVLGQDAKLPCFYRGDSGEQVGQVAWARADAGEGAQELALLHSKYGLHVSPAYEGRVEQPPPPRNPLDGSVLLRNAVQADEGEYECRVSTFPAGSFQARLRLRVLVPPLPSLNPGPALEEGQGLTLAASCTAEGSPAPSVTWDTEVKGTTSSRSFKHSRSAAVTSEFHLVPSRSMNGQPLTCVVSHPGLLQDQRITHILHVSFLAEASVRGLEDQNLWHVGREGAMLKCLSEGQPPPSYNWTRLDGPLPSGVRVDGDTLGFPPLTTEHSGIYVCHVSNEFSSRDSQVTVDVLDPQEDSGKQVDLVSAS

[3] = molecular target: T3, recombinant human Nectin-4 protein (human, UniProt Q96NY8 32-349); experiment: ELISA on recombinant protein
T3 construct: Recombinant protein; construct not described
T3 sequence (looked up): T2 sequence with A39V, V230I

[4] = molecular target: T1, recombinant rat Nectin-4 protein; experiment: BLI, antibody as loading sample
[5] = molecular target: T2, recombinant cynomolgus monkey Nectin-4 …; experiment: BLI, antibody as loading sample
[6] = molecular target: T3, recombinant human Nectin-4 protein; experiment: BLI, antibody as loading sample
[7] = molecular target: T4, recombinant human Nectin-2 (human, UniProt Q92692 32-360, limits assumed); experiment: ELISA
T4 construct: Recombinant protein; construct not described
T4 sequence (looked up): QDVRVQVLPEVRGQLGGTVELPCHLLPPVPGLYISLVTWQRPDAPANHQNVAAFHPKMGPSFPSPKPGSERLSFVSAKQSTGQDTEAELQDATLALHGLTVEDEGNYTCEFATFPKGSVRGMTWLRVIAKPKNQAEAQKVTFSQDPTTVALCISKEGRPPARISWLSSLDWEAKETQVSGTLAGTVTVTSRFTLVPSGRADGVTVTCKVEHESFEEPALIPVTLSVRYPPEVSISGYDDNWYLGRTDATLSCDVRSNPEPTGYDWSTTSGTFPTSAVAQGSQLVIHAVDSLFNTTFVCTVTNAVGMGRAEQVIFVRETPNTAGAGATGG

[8] = molecular target: T5, recombinant human Nectin-3 (human, UniProt Q9NQS3 58-404, limits assumed); experiment: ELISA
T5 construct: Recombinant protein; construct not described

[9] = molecular target: T6, recombinant human Nectin-1 (human, UniProt Q15223 31-334, limits assumed); experiment: ELISA
T6 construct: Recombinant protein; construct not described
T6 sequence (looked up): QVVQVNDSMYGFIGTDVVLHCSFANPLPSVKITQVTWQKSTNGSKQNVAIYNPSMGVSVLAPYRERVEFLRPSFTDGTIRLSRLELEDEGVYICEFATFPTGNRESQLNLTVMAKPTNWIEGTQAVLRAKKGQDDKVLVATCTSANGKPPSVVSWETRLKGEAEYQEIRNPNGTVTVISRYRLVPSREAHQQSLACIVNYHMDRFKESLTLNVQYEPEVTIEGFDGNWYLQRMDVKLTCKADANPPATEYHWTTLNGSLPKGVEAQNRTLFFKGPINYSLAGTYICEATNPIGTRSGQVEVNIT

T5 sequence (Q9NQS3 58-404 limits assumed): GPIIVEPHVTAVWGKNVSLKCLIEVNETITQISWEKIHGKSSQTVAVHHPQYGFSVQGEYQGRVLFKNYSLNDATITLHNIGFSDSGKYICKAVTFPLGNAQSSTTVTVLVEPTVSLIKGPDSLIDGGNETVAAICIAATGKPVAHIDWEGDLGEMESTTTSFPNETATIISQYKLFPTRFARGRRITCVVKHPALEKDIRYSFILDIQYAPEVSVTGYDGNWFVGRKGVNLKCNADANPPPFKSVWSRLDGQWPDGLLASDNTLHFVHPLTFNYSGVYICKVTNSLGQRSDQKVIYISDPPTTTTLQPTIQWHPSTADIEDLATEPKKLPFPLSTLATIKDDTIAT

EC50 [1]: 9.88 ng/mL
EC50 [2]: 7.94 ng/mL
EC50 [3]: 8.31 ng/mL
Kd [4]: 3.2 nM
Response [4]: 0.511
Kd [5]: 1.78 nM
Response [5]: 0.643
Kd [6]: 2.89 nM
Response [6]: 0.621
binding result [7]: no binding
binding result [8]: no binding
binding result [9]: no binding
B1: Enfortumab-PBX-7016 ADC (antibody, V domains shown)
VH: EVQLVESGGGLVQPGGSLRLSCAASGFTFSSYNMNWVRQAPGKGLEWVSYISSSSSTIYYADSVKGRFTISRDNAKNSLSLQMNSLRDEDTAVYYCARAYYYGMDVWGQGTTVTVSS
VL: DIQMTQSPSSVSASVGDRVTITCRASQGISGWLAWYQQKPGKAPKFLIYAASTLQSGVPSRFSGSGSGTDFTLTISSLQPEDFATYYCQQANSFPPTFGGGTKVEIKR
modifications: mc-GGFG-PBX-7016 linker-payload on cysteine thiols freed by TCEP reduction of the disulfides; positions not given

EC50 [1]: 9.63 ng/mL
EC50 [2]: 8.43 ng/mL
EC50 [3]: 8.38 ng/mL
Kd [4]: 3.96 nM
Response [4]: 0.606
koff [4]: 0.00149 s⁻¹
kon [4]: 376000 M⁻¹ s⁻¹
Kd [5]: 6.05 nM
Response [5]: 0.67
koff [5]: 0.00191 s⁻¹
kon [5]: 316000 M⁻¹ s⁻¹
Kd [6]: 5.02 nM
Response [6]: 0.681
koff [6]: 0.00136 s⁻¹
kon [6]: 271000 M⁻¹ s⁻¹
binding result [7]: no binding
binding result [8]: no binding
binding result [9]: no binding
B2: Enfortumab mAb (antibody, human IgG1, kappa, V domains shown)
VH: B1 VH
VL: B1 VL
notes: Naked antibody (source: Abinvivo); also called anti-Nectin-4 antibody (Enfortumab); anti-Nectin4 mAb
